Reference: patent US20250213730A1 (Takeda / Millennium, published 2025)

How the values were obtained:
[1] = biological target: T1, Recombinant Human TfR Protein (R&D Systems; Catalog #2474-TR) (human, UniProt P02786 89-760); assay: SPR (Biacore 8K+), I2S immobilized on CM5 by amine coupling, TfR as analyte
T1 construct: Bought reagent, injected as analyte in SPR; also called hTfR1; hTFR1
Description: (§1) Surface Plasmon Resonance (SPR) assays: Binding affinity between human/mouse receptor with Iduronate 2 Sulfatase or idursulfase (I2S) tagged with an anti-transferrin receptor binding single domain antibody (VHH) was determined using the Biacore 8K+ instrument (Cytiva; Danaher Corporation). In this experiment, samples were immobilized on a series S sensor chip CM5 (Catalog #29104988) via amine coupling. Samples immobilized (ligand) were i) I2S-VHH ii) VHH-I2S iii) I2S as negative control iv) Holo transferrin peptide as positive control. 1 ug/mL of ligand, reconstituted in Acetate pH 4.0, was immobilized on individual flow cells for 420 s, yielding a final immobilization level of approximately 350 Response Units. Recombinant Human TfR Protein (R&D Systems; Catalog #2474-TR) and Mouse TfR1 (TR06671428-001; Takeda) were injected on this surface (as analyte) with a concentration range of 5, 2.5, 1.25, 0.625 & 0.156 ug/mL. Analyte series was injected for 120 s, followed by a dissociation phase for a duration that yields at least 10% dissociation of analyte. Resulting sensograms were analyzed using the 1:1 Binding Model.

[2] = biological target: T2, Mouse TfR1 (TR06671428-001; Takeda) (mouse, UniProt Q62351 89-763); assay: SPR (Biacore 8K+), I2S immobilized on CM5 by amine coupling, TfR1 as analyte
T2 construct: Injected as analyte in SPR; also called mTFR1; mouse transferrin receptor 1
Description: as §1

T2 sequence (Q62351 89-763 limits assumed): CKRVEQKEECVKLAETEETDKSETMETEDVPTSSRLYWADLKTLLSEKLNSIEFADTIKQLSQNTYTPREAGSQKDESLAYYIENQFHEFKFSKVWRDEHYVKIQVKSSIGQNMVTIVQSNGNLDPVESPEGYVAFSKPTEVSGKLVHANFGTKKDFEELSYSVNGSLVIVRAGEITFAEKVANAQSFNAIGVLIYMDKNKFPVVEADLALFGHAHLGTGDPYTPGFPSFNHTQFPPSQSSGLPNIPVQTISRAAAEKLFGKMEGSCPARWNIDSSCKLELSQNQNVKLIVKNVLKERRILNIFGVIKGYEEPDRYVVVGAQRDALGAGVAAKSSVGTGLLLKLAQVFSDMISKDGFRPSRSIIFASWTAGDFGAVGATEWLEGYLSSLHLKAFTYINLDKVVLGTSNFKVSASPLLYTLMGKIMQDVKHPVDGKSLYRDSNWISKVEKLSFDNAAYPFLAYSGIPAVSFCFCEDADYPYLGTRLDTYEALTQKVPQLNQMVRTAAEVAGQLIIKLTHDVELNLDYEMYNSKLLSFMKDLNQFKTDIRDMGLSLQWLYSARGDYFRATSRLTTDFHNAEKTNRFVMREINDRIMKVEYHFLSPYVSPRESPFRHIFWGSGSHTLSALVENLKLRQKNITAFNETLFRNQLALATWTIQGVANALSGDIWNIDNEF
T1 sequence (P02786 89-760 limits assumed): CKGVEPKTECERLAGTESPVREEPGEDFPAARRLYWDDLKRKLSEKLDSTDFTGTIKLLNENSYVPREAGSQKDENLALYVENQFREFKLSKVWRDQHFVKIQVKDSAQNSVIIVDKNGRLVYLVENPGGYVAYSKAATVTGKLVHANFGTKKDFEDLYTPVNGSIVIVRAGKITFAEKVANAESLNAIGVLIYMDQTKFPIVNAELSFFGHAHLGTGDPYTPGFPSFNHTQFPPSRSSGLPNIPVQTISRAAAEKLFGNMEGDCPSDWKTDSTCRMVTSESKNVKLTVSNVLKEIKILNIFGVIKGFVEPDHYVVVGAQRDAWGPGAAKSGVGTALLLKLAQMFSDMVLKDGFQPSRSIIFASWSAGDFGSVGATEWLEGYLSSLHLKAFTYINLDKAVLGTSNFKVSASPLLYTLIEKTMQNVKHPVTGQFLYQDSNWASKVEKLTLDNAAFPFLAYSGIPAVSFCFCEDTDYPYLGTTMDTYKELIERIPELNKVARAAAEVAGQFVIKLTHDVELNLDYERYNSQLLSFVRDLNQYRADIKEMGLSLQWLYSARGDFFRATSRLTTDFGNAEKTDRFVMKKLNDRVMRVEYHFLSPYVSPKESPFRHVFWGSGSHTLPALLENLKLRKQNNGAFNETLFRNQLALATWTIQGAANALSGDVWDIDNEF

B1: I2S control (untagged human iduronate-2-sulfatase, purified protein) (enzyme)
chain: SETQANSTTDALNVLLIIVDDLRPSLGCYGDKLVRSPNIDQLASHSLLFQNAFAQQAVCAPSRVSFLTGRRPDTTRLYDFNSYWRVHAGNFSTIPQYFKENGYVTMSVGKVFHPGISSNHTDDSPYSWSFPPYHPSSEKYENTKTCRGPDGELHANLLCPVDVLDVPEGTLPDKQSTEQAIQLLEKMKTSASPFFLAVGYHKPHIPFRYPKEFQKLYPLENITLAPDPEVPDGLPPVAYNPWMDIRQREDVQALNISVPYGPIPVDFQRKIRQSYFASVSYLDTQVGRLLSALDDLQLANSTIIAFTSDHGWALGEHGEWAKYSNFDVATHVPLIFYVPGRTASLPEAGEKLFPYLDPFDSASQLMEPGRQSMDLVELVSLFPTLAGLAGLQVPPRCPVPSFHVELCREGKNLLKHFRFRDLEEDPYLPGNPRELIAYSQYPRPSDIPQWNSDKPSLKDIKIMGYSIRTIDYRYTVWVGFNPDEFLANFSDIHAGELYFVDSDPLQDHNMYNDSQGGDLFQLLMP
notes: Negative control in the SPR assay; also called idursulfase; IDS
B1: no binding (tested: analyte 0.156-5 ug/mL) [1]; no binding (tested: analyte 0.156-5 ug/mL) [2].
